For assay [1], the target named is T1, SARS-COV2-S1 RBD (mouse IgG2Fc tag) (SARS-CoV-2, UniProt P0DTC2 319-537). The assay can be described thus: column not explained; likely FACS, S1 RBD on Vero E6.
Assay [2] deals with T2, Acro SARS-CoV-2 (COVID-19) S1 protein (SARS-CoV-2, UniProt P0DTC2 16-685).
T2 construct: also called SARS-CoV-2 S1
The assay can be described thus: SPR. On the technique in general: In SPR one partner is held on a chip, and binding of the other changes the refractive index at the surface.

In assay [3] the target is T1, SARS-COV2-S1 RBD (mouse IgG2Fc tag). The assay can be described thus: FACS, blocks S1 RBD-mFc binding to ACE2 on Vero E6. In general terms: In flow cytometry, cells or beads pass a laser one at a time.
Assay [4] has the same target.
In assay [5] the target is SARS-CoV-2 spike on live SARS-CoV-2 virus (SARS-CoV-2, UniProt P0DTC2 14-1273). The assay can be described thus: cell-based or functional assay.
Assay [6] has as its target human ACE2 (human, UniProt Q9BYF1 18-740).
For assay [7], the target named is T3, Acro SARS-CoV-2 (COVID-19) S1 protein (SARS-CoV-2, UniProt P0DTC2 16-685).
T3 construct: also called SARS-CoV-2 S1
The assay can be described thus: SPR. This is another data set of the same source.

Assay [8] addresses SARS-COV2-S1 RBD (mouse IgG2Fc tag) (SARS-CoV-2, UniProt P0DTC2 319-537). The assay can be described thus: FACS, S1 RBD-mFc on Vero E6 (ACE2).

Like-named read-outs stand apart in the source and are kept apart here.

human ACE2, sequence (Q9BYF1 18-740 limits assumed): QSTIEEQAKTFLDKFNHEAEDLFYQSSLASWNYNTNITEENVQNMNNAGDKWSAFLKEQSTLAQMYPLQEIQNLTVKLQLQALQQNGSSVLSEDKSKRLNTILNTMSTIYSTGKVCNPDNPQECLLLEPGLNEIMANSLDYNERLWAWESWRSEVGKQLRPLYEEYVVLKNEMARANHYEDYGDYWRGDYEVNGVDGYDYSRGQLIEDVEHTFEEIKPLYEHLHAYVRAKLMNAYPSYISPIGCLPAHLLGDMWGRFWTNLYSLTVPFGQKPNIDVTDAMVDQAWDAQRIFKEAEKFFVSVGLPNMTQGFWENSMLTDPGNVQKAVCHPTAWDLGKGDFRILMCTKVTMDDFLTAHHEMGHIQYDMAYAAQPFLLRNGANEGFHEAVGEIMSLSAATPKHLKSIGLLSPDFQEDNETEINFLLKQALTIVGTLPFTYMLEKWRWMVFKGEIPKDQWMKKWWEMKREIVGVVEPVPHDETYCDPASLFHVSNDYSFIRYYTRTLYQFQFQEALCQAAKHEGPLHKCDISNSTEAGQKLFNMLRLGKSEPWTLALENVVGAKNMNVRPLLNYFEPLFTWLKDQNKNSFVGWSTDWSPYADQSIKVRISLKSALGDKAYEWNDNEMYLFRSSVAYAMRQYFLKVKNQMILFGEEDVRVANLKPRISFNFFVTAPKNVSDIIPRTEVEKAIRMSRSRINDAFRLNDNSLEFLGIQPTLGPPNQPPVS

B1: variant 6-20 (Fc fusion)
VHH: EVQLVESGGGLVQPGGSLRLSCAASGSTLPYHAMGWFRQAPGKEREFVAAITWNGASTSYADSVKGRFTISADNSKNTAYLQMNSLKPEDTAVYYCARDRYYDTSASYFESETWGQGTLVTVSS
As for B1, the “MFI Fold Decrease” value in assay [1] stood at 9.95 fold. This molecule also came in with a Kd in assay [2] of 20.9 nM. The IC50 in assay [3] was 0.76 nM.

B2: variant 6-60 (Fc fusion)
VHH: EVQLVESGGGLVQPGGSLRLSCAASGDTYGSYWMGWFRQAPGKEREFVATISQSGAATAYADSVKGRFTISADNSKNTAYLQMNSLKPEDTAVYYCAGLLRYSGTYYDAFDVWGQGTLVTVSS
In the case of B2, in assay [1], the “MFI Fold Decrease” value is 12.6 fold. Also, the Kd in assay [2] stood at 20.1 nM. In assay [3], this molecule gave an IC50 of 1.31 nM.

B3: variant 5-60 (Fc fusion)
VHH: EVQLVESGGGLVQPGGSLRLSCAASGRSFSSHRMGWFRQAPGKEREFVAAIMWSGSHRNYADSVKGRFTISADNSKNTAYLQMNSLKPEDTAVYYCAAIAYEEGVYRWDWGQGTLVTVSS
B3 yielded a 50% inhibitory concentration (IC50) in assay [4] of 2.15 nM. Also, binding in assay [2] was put at a Kd of 29.4 nM.

B4: variant 5-67 (Fc fusion)
VHH: EVQLVESGGGLVQPGGSLRLSCAASGFNVNDYAMGWFRQAPGKEREFVAGITSSVGVTNYADSVKGRFTISADNSKNTAYLQMNSLKPEDTAVYYCAADIFFVNWGRGTLVTVSS
B4 returned a half-inhibitory concentration (IC50) in assay [4] of 0.76 nM. Moreover, it took 1.57 µg/mL to reach the 80% level in assay [5] (EC80). Besides, the dissociation constant Kd in assay [2] amounted to 22.1 nM.

B5: variant 5-56 (Fc fusion)
VHH: EVQLVESGGGLVQPGGSLRLSCAASGRTFSSNMGWFRQAPGKEREFVARIFGGDRTLYADSVKGRFTISADNSKNTAYLQMNSLKPEDTAVYYCADINGDWGQGTLVTVSS
Consider B5, for which, in assay [4], the concentration for half-maximal inhibition (IC50) came out at 0.68 nM. Besides, the 80% effect concentration (EC80) in assay [5] came to 105 µg/mL. The dissociation constant (Kd) in assay [2] is 54.3 nM.

B6: 4-52 (VHH)
VHH: EVQLVESGGGLVQPGGSLRLSCAASGRSFSNSVMGWFRQAPGKEREFVARITWNGGSTYYADSVKGRFTISADNSKNTAYLQMNSLKPEDTAVYYCATTENPNPRWGQGTLVTVSS
In assay [6], B6 gave an IC50 of 0.35 nM.

B7: variant 6-78 (Fc fusion)
VHH: EVQLVESGGGLVQPGGSLRLSCAASGRTYDAMGWFRQAPGKEREFVASVTSGGYTHYADSVKGRFTISADNSKNTAYLQMNSLKPEDTAVYYCAKFGRKIVGATELDYWGQGTLVTVSS
notes: VHH-Fc
In assay [7], B7 had a Kd of 18.9 nM. Moreover, the “Competition Factor” value in assay [8] stood at 9.27.

B8: variant 6-78 (Fc fusion)
VHH: EVQLVESGGGLVQPGGSLRLSCAASGRTYDAMGWFRQAPGKEREFVASVTSGGYTHYADSVKGRFTISADNSKNTAYLQMNSLKPEDTAVYYCAKFGRKIVGATELDYWGQGTLVTVSS
In the case of B8, the “MFI Fold Decrease” value in assay [1] was found to be 9.27 fold. For the same molecule, the affinity in assay [2], expressed as Kd, was 18.9 nM. Moreover, in assay [3], the IC50 was determined as 0.743 nM.

B9: variant 5-55 (Fc fusion)
VHH: EVQLVESGGGLVQPGGSLRLSCAASGIDVNRNAMGWFRQAPGKEREFVAAITWSGGWRYYADSVKGRFTISADNSKNTAYLQMNSLKPEDTAVYYCATTFGDAGIPDQYDFGWGQGTLVTVSS
In turn, B9 had an IC50 in assay [4] of 1.45 nM.

B10: 4-121 (VHH)
VHH: EVQLVESGGGLVQPGGSLRLSCAASGTAASFNPMGWFRQAPGKEREFVAAITSGGSTNYADSVKGRFTISADNSKNTAYLQMNSLKPEDTAVYYCAAIAYEEGVYRWDWGQGTLVTVSS
For the molecule B10, in assay [6], 0.91 nM corresponded to half-maximal inhibition (IC50).

B11: variant 6-26 (Fc fusion)
VHH: EVQLVESGGGLVQPGGSLRLSCAASGDTFSTSWMGWFRQAPGKEREFVATINTGGGTNYADSVKGRFTISADNSKNTAYLQMNSLKPEDTAVYYCARVTTSFDYWGQGTLVTVSS
Consider B11, for which, in assay [1], the “MFI Fold Decrease” value worked out at 6.41 fold. Besides, the Kd in assay [2] worked out at 38.7 nM. Besides, in assay [3], the IC50 was found to be 1.07 nM.

B12: variant 5-29 (Fc fusion)
VHH: EVQLVESGGGLVQPGGSLRLSCAASGFTFDDYPMGWFRQAPGKEREGVASVLRGGYTWYADSVKGRFTISADNSKNTAYLQMNSLKPEDTAVYYCAKDWATGLAWGQGTLVTVSS
B12: in assay [4], the midpoint of inhibition, the IC50, lay at 2.19 nM.

B13: variant 6-76 (Fc fusion)
VHH: EVQLVESGGGLVQPGGSLRLSCAASGLAFDFDGMGWFRQAPGKEREGVAAINSGGSTYYADSVKGRFTISADNSKNTAYLQMNSLKPEDTAVYYCARFFRAHDYWGQGTLVTVSS
notes: VHH-Fc
Turning to B13, the Kd in assay [7] stood at 33.5 nM. The “Competition Factor” value in assay [8] worked out at 9.96.

B14: variant 6-76 (Fc fusion)
VHH: EVQLVESGGGLVQPGGSLRLSCAASGLAFDFDGMGWFRQAPGKEREGVAAINSGGSTYYADSVKGRFTISADNSKNTAYLQMNSLKPEDTAVYYCARFFRAHDYWGQGTLVTVSS
For the molecule B14, the “MFI Fold Decrease” value in assay [1] amounted to 9.96 fold. Also, the Kd in assay [2] is 33.5 nM. In assay [3], this molecule displayed an IC50 of 1.11 nM.

B15: variant 5-49 (Fc fusion)
VHH: EVQLVESGGGLVQPGGSLRLSCAASGRTSTVNGMGWFRQAPGKEREFVASISQSGAATAYADSVKGRFTISADNSKNTAYLQMNSLKPEDTAVYYCAADRTYSYSSTGYYWGQGTLVTVSS
Turning to B15, in assay [4], the IC50 amounted to 5.61 nM.

B16: variant 6-73 (Fc fusion)
VHH: EVQLVESGGGLVQPGGSLRLSCAASGHTFSGYAMGWFRQAPGKEREFVAVITREGSTYYADSVKGRFTISADNSKNTAYLQMNSLKPEDTAVYYCARLGGEGFDYWGQGTLVTVSS
Regarding B16, the “MFI Fold Decrease” value in assay [1] is 7.99 fold. The molecule further displayed a Kd in assay [2] of 103 nM. The molecule also had an IC50 in assay [3] of 1.01 nM.

B17: variant 6-55 (Fc fusion)
VHH: EVQLVESGGGLVQPGGSLRLSCAASGFTMSSSWMGWFRQAPGKEREFVARITSGGSTGYADSVKGRFTISADNSKNTAYLQMNSLKPEDTAVYYCASVDGYFDYWGQGTLVTVSS
As for B17, in assay [1], the “MFI Fold Decrease” value amounted to 7.98 fold. This molecule yielded a Kd in assay [2] of 25.2 nM. Moreover, the IC50 in assay [3] stood at 0.97 nM.

B18: variant 5-47 (Fc fusion)
VHH: EVQLVESGGGLVQPGGSLRLSCAASGFTFGSYDMGWFRQAPGKEREFVTAINWSGARTAYADSVKGRFTISADNSKNTAYLQMNSLKPEDTAVYYCAARSVYSYEYNWGQGTLVTVSS
In turn, B18 showed an IC50 in assay [4] of 0.8 nM. Besides, the “EC80” value in assay [5] amounted to 2.46 µg/mL. The molecule also came in with a Kd in assay [2] of 27.7 nM.

B19: 4-49 (VHH)
VHH: EVQLVESGGGLVQPGGSLRLSCAASGRTFGDYIMGWFRQAPGKERESVAAINWSAGYTAYADSVKGRFTISADNSKNTAYLQMNSLKPEDTAVYYCARASPNTGWHFDHWGQGTLVTVSS
B19 showed an IC50 in assay [6] of 58 nM.

B20: variant 5-15 (Fc fusion)
VHH: EVQLVESGGGLVQPGGSLRLSCAASGFTFDGAAMGWFRQAPGKEREFVATIRWTNSTDYADSVKGRFTISADNSKNTAYLQMNSLKPEDTAVYYCARGRYGIVERWGQGTLVTVSS
With B20, the 50% inhibitory concentration (IC50) in assay [4] amounted to 2.19 nM.

By Kd is commonly meant the free concentration of one partner at which half of the binding sites on the other are occupied at equilibrium, for simple one-to-one binding. A higher Kd goes with a looser complex. By IC50 is commonly meant the concentration at which inhibition is half-maximal. The EC80 is the point of the concentration-response curve where the effect stands at 80%. A high value points to a need for much substance.
